Reference: IntAct's records for PubMed 31515488

B1: "N-acyl-aromatic-L-amino acid amidohydrolase (carboxylate-forming)" (Homo sapiens), Q96HD9 (parent)
chain: MCSLPVPREPLRRVAVTGGTHGNEMSGVYLARHWLHAPAELQRASFSAVPVLANPAATSGCRRYVDHDLNRTFTSSFLNSRPTPDDPYEVTRARELNQLLGPKASGQAFDFVLDLHNTTANMGTCLIAKSSHEVFAMHLCRHLQLQYPELSCQVFLYQRSGEESYNLDSVAKNGLGLELGPQPQGVLRADIFSRMRTLVATVLDFIELFNQGTAFPAFEMEAYRPVGVVDFPRTEAGHLAGTVHPQLQDRDFQPLQPGAPIFQMFSGEDLLYEGESTVYPVFINEAAYYEKGVAFVQTEKFTFTVPAMPALTPAPSPAS
partner: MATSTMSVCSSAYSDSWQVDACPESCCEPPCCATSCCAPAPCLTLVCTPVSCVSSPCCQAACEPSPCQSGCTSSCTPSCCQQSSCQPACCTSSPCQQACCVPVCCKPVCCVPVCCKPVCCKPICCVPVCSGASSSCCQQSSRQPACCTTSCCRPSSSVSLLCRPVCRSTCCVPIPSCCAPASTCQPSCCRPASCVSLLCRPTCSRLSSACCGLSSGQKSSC
B2: Spindle and kinetochore-associated protein 3 (Homo sapiens), Q8IX90 (parent)
chain: MDPIRSFCGKLRSLASTLDCETARLQRALDGEESDFEDYPMRILYDLHSEVQTLKDDVNILLDKARLENQEGIDFIKATKVLMEKNSMDIMKIREYFQKYGYSPRVKKNSVHEQEAINSDPELSNCENFQKTDVKDDLSDPPVASSCISEKSPRSPQLSDFGLERYIVSQVLPNPPQAVNNYKEEPVIVTPPTKQSLVKVLKTPKCALKMDDFECVTPKLEHFGISEYTMCLNEDYTMGLKNARNNKSEEAIDTESRLNDNVFATPSPIIQQLEKSDAEYTNSPLVPTFCTPGLKIPSTKNSIALVSTNYPLSKTNSSSNDLEVEDRTSLVLNSDTCFENLTDPSSPTISSYENLLRTPTPPEVTKIPEDILQLLSKYNSNLATPIAIKAVPPSKRFLKHGQNIRDVSNKEN
B3: Tuftelin-interacting protein 11 (Homo sapiens), Q9UBB9 (parent)
chain: MSLSHLYRDGEGRIDDDDDERENFEITDWDLQNEFNPNRQRHWQTKEEATYGVWAERDSDDERPSFGGKRARDYSAPVNFISAGLKKGAAEEAELEDSDDEEKPVKQDDFPKDFGPRKLKTGGNFKPSQKGFAGGTKSFMDFGSWERHTKGIGQKLLQKMGYVPGRGLGKNAQGIINPIEAKQRKGKGAVGAYGSERTTQSMQDFPVVDSEEEAEEEFQKELSQWRKDPSGSKKKPKYSYKTVEELKAKGRISKKLTAPQKELSQVKVIDMTGREQKVYYSYSQISHKHNVPDDGLPLQSQQLPQSGKEAKAPGFALPELEHNLQLLIDLTEQEIIQNDRQLQYERDMVVNLFHELEKMTEVLDHEERVISNLSKVLEMVEECERRMQPDCSNPLTLDECARIFETLQDKYYEEYRMSDRVDLAVAIVYPLMKEYFKEWDPLKDCTYGTEIISKWKSLLENDQLLSHGGQDLSADAFHRLIWEVWMPFVRNIVTQWQPRNCDPMVDFLDSWVHIIPVWILDNILDQLIFPKLQKEVENWNPLTDTVPIHSWIHPWLPLMQARLEPLYSPIRSKLSSALQKWHPSDSSAKLILQPWKDVFTPGSWEAFMVKNIVPKLGMCLGELVINPHQQHMDAFYWVIDWEGMISVSSLVGLLEKHFFPKWLQVLCSWLSNSPNYEEITKWYLGWKSMFSDQVLAHPSVKDKFNEALDIMNRAVSSNVGAYMQPGARENIAYLTHTERRKDFQYEAMQERREAENMAQRGIGVAASSVPMNFKDLIETKAEEHNIVFMPVIGKRHEGKQLYTFGRIVIYIDRGVVFVQGEKTWVPTSLQSLIDMAK
partner: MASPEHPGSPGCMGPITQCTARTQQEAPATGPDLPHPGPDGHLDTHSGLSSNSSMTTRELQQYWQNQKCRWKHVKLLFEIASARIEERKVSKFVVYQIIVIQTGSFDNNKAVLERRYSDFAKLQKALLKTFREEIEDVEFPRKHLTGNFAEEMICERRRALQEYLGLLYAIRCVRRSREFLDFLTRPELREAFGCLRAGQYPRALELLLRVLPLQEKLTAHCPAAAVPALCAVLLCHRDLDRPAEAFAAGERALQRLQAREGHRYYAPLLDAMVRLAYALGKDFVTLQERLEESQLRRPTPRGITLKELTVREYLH
B4: Scaffold protein ILK (Homo sapiens), Q13418 (parent)
chain: MDDIFTQCREGNAVAVRLWLDNTENDLNQGDDHGFSPLHWACREGRSAVVEMLIMRGARINVMNRGDDTPLHLAASHGHRDIVQKLLQYKADINAVNEHGNVPLHYACFWGQDQVAEDLVANGALVSICNKYGEMPVDKAKAPLRELLRERAEKMGQNLNRIPYKDTFWKGTTRTRPRNGTLNKHSGIDFKQLNFLTKLNENHSGELWKGRWQGNDIVVKVLKVRDWSTRKSRDFNEECPRLRIFSHPNVLPVLGACQSPPAPHPTLITHWMPYGSLYNVLHEGTNFVVDQSQAVKFALDMARGMAFLHTLEPLIPRHALNSRSVMIDEDMTARISMADVKFSFQCPGRMYAPAWVAPEALQKKPEDTNRRSADMWSFAVLLWELVTREVPFADLSNMEIGMKVALEGLRPTIPPGISPHVCKLMKICMNEDPAKRPKFDMIVPILEKMQDK
partner: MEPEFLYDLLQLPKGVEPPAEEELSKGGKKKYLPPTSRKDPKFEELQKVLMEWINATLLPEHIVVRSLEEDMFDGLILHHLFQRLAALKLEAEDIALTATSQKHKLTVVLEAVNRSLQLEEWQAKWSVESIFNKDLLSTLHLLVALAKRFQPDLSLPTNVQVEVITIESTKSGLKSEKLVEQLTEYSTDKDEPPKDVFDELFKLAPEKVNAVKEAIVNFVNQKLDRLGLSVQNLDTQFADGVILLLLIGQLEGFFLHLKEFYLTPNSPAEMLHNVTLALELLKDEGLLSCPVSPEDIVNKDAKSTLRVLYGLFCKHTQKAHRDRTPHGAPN
B5: Protein DBF4 homolog B (Homo sapiens), Q8NFT6 (parent)
chain: MSEPGKGDDCLELESSMAESRLRAPDLGVSRCLGKCQKNSPGARKHPFSGKSFYLDLPAGKNLQFLTGAIQQLGGVIEGFLSKEVSYIVSSRREVKAESSGKSHRGCPSPSPSEVRVETSAMVDPKGSHPRPSRKPVDSVPLSRGKELLQKAIRNQGSISGGGSGGSSSLLTNARSWGVRILHVDEMMMHVQQLSLASLCVKKQQPKKPEGTCPAAESRTRKVARLKAPFLKIEDESRKFRPFHHQFKSFPEISFLGPKDASPFEAPTTLGSMHHTRESKDGEPSPRSAAHTMPRRKKGYCECCQEAFEELHVHLQSAQHRSFALEAHLYAEVDRIIAQLSHSFADIPFQAGLPRWSGSPASDCDPLCPETLHPHQPSHPRAASPRIRKEDSCQASVTQGRAAGQQRWTESLDGVMGPPASHTCVSATTLLPALPKGSREQGCLCPCPASFTQSHLVTSLALLPGEWSPAEDMPLHPSQENSFAPADIPVKGPLLFPEARPWLMSARCWVRPFPFVTWGCLIPHDTTPLHEEVSPCPCLRLGYLYLLLTQSLWCRVRVPSLSTAGPIPRTSHPCTLAFPSYLNDHDLGHLCQAKPQGWNTPQPFLHCGFLAVDSG

Variants of: B1
Settings: with kr103_human KRTAP10-3, P60369

Variant	effect of a mutation on the interaction
R8Q	with no effect

Variants of: B2
Settings: with ska1_human SKA1, Q96BD8
ska1_human SKA1, Q96BD8, sequence (Q96BD8 whole entry): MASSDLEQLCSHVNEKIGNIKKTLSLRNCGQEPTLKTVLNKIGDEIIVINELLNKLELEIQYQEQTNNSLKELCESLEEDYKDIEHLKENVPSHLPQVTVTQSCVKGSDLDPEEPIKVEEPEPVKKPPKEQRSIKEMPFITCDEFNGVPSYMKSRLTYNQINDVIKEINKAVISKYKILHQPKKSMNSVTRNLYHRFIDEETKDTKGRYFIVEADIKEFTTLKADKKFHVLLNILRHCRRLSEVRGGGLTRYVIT

Variant	effect of a mutation on the interaction
V187I	with no effect
T254A	with no effect
A28V	with no effect
T348M	with no effect
R396M	with no effect
D335E	with no effect

Variants of: B3
Settings: with snx20_human SNX20, Q7Z614

Variant	effect of a mutation on the interaction
S688L	with no effect
R8Q	with no effect

Variants of: B4
Settings: with parvg_human PARVG

Variant	effect of a mutation on the interaction
V340G	with no effect

Variants of: B5
Settings: with tri23_human TRIM23, P36406
tri23_human TRIM23, P36406, sequence (P36406 whole entry): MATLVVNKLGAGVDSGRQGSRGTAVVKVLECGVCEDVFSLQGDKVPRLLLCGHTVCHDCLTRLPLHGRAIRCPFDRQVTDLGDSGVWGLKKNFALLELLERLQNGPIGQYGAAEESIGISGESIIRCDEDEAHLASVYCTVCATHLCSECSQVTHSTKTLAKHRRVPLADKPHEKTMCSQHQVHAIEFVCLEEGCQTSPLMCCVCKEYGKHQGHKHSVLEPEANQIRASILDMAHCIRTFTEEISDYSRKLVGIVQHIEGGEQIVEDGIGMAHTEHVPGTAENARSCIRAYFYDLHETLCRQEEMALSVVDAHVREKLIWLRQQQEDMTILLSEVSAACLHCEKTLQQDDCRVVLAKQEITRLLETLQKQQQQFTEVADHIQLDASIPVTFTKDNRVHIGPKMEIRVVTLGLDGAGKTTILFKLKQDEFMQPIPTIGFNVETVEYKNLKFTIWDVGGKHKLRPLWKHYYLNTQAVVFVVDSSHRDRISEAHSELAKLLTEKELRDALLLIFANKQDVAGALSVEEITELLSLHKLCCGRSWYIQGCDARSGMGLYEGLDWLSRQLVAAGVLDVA

Variant	effect of a mutation on the interaction
L199S	disrupting interaction strength
